Laboratory results reported in patent publication US20220177587A1, “METHODS AND USES OF VARIANT CD80 FUSION PROTEINS AND RELATED CONSTRUCTS” (Alpine Immune Sciences, Inc., priority 2018, published 2022).
pEC50: −log10 of the molar value. One block for each compound: values may come before it. Where no end group is shown, it is not given here.

Columns and labels:
[1] = tested on: huPD-L1/MC38 cells; test: huPD-L1 MC38 tumor model, combination with oxaliplatin; assay type: in vivo, mouse; details: monotherapy
Description: To test the anti-tumor activity of the exemplary variant, it was evaluated alone or in combination with the platinum-based chemotherapeutic agent, oxaliplatin, in mice bearing human PD-L1-expressing MC38 tumors, which is a syngeneic mouse colon carcinoma solid tumor model.
The huPD-L1 MC38 cell line was generated by transducing parental MC38 cells with huPD-L1 using viral transduction. Eight-week old female C57/BL6NJ mice (The Jackson Laboratories, Sacramento, Calif.) were implanted subcutaneously with 0.5×10^6 huPD-L1/MC38 cells. For injections, 0.1 mL of cells (0.5×10^6 cells) were injected subcutaneously (SC) in the right mid-flank region.
On day 1, mice were randomized into four groups of 10 mice each, with all mice in each group having about equal mean tumor volumes (˜108 mm^3). Tumors were measured with electronic calipers two-dimensionally twice weekly, beginning on day 7 post-tumor cell implant (referred to as “day 1”). Tumor volume was calculated as length×(width×2)×0.5, with the length being the longer of the two measurements.
As shown, 30% of the mice in the monotherapy group were tumor free by the end of the study.

[2] = biological target: T1, CD28 (Homo sapiens, UniProt P10747); test: Jurkat/IL2 + K562/OKT3 (no PD-L1) reporter assay of CD80 ECD-Fc (effector); assay type: cell-based; parameters: host or cells: Jurkat cells expressing an IL-2-luciferase reporter; details: aAPC without PD-L1
Description: The bioactivity of the generated molecules also was assessed using a Jurkat report assay as described in Examples 9 to assess CD28 costimulation of the molecules.

[3] = biological target: huCTLA4 (Homo sapiens, UniProt P16410); test: Flow binding to CHO cells stably expressing CTLA4; parameters: huCTLA4 and huPD-L1, full-length mammalian surface expression constructs were generated; expressed in transfected cells; host or cells: CHO cells, lentiviral transduction, sorted to >98% purity; details: for CTLA4 MFI at 33.3 nM: CHO cells stably expressing CTLA4
Chain of huCTLA4 (P16410 36-223): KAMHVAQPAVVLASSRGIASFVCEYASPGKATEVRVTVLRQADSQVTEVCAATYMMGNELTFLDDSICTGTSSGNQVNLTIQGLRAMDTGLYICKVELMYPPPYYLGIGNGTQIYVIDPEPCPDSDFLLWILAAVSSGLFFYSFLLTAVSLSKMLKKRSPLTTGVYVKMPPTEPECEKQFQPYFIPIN
Description: (§1) Binding of selected immunomodulatory fusion proteins to cognate binding partners was assessed. […] Cells were sorted in a Bio-Rad S3 Cell Sorter (Bio-Rad Corp., USA) to >98% purity. Jurkat/IL2 reporter cells, which endogenously express CD28, were used to detect binding to CD28.
(§2) For staining and analysis by flow cytometry, 100,000 cells of appropriate transfected cells were plated in 96-well round bottom plates. Cells were spun down and resuspended in staining buffer (phosphate buffered saline (PBS), 1% bovine serum albumin (BSA), and 0.1% sodium azide) for 20 minutes to block non-specific binding. […] Primary staining was performed on ice for 45 minutes, before washing cells in staining buffer twice. Phycoerythrin (PE)-conjugated anti-human Fc (Jackson ImmunoResearch, USA) was diluted 1:150, added to cells and incubated another 30 minutes on ice. Cells were then washed twice with 150 μL/well stain buffer, fixed in 2% formaldehyde/PBS, and analyzed on Intellicyt flow cytometer (Intellicyt Corp., USA). PE Mean Fluorescence Intensity (MFI) was calculated for each cell type with FlowJo Version 10 software (FlowJo LLC, USA).
(§3) Binding assays were carried out to assess the specificity and affinity of multivalent proteins to cell-expressed CTLA-4, CD28, and PD-L1 counter structures.
(§4) The EC50 for binding also was determined.

[4] = biological target: huPD-L1 (Homo sapiens, UniProt Q9NZQ7); test: Flow binding to CHO cells stably expressing PD-L1; parameters: huCTLA4 and huPD-L1, full-length mammalian surface expression constructs were generated; expressed in transfected cells; host or cells: CHO cells, lentiviral transduction, sorted to >98% purity; details: for PD-L1 MFI at 33.3 nM: CHO cells stably expressing PD-L1
Chain of huPD-L1 (Q9NZQ7 19-290): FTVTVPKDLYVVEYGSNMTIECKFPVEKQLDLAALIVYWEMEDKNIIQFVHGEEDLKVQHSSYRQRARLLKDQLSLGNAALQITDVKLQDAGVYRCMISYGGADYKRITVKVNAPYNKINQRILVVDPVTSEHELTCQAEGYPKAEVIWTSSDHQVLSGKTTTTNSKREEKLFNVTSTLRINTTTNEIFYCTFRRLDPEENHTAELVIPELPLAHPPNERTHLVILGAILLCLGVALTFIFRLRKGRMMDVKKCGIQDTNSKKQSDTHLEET
Description: as §1, §2, §3, §4

[5] = biological target: T1, CD28; test: Flow binding to Jurkat/IL2 reporter cells (CD28); parameters: host or cells: Jurkat cells expressing an IL-2-luciferase reporter
Description: as §1, §2, §3, §4

[6] = biological target: T1, CD28; test: Jurkat/IL2 + CHO/OKT3 +/- PD-L1 reporter assay: PD-L1-dependent CD28 costimulation; assay type: cell-based; parameters: host or cells: Jurkat cells expressing an IL-2-luciferase reporter; details: 5.0 nM
Description: Jurkat cells were then plated at 50 μL/well for a total of 100,000 cells per well.
To each well, 25 μL of test protein was added to the Jurkat cells. […] The Jurkat cells with test or control proteins were incubated for 15 minutes at room temperature. CHO-derived artificial antigen presenting cells (aAPC) displaying transduced cell surface anti-CD3 single chain Fv (OKT3) (i.e., no PD-L1), or OKT3 and PD-L1 (i.e., +PD-L1), were brought to 0.8×10^6 cells/mL, and 25 μL of cells were added to each well, bringing the final volume of each well to 100 μL. […] Jurkat cells and CHO cells were incubated for 5 hours at 37 degrees Celsius in a humidified 5% CO2 incubation chamber. Plates were then removed from the incubator and acclimated to room temperature for 15 minutes. 100 μL of a cell lysis and luciferase substrate solution (BioGlo luciferase reagent, Promega) were added to each well and the plates were incubated on an orbital shaker for 10 minutes. Luminescence was measured with a 1 second per well integration time using a BioTek Cytation luminometer, and a relative luminescence value (RLU) was determined for each test sample.

[7] = tested on: Pan T cells; test: Primary T cell stimulation assay with K562/OKT3 +/- PD-L1 (IL-2, IFN-gamma, proliferation); assay type: cell-based, human; parameters: IL-2 release, K562/OKT3 (No PD-L1), CD80-IgV Fc (effector), 1 nM / IL-2 release, K562/OKT3 (No PD-L1), CD80-IgV Fc (effector), 10 nM / IL-2 release, K562/OKT3 (No PD-L1), CD80-IgV Fc (effector), 100 nM / IL-2 release, K562/OKT3/PD-L1, CD80-IgV Fc (inert), 1 nM / IL-2 release, K562/OKT3/PD-L1, CD80-IgV Fc (inert), 10 nM / IL-2 release, K562/OKT3/PD-L1, CD80-IgV Fc (inert), 100 nM: unit not given here; details: 72 hr; for IL-2 release, K562/OKT3 (No PD-L1), CD80-IgV Fc (effector), 1 nM / IL-2 release, K562/OKT3 (No PD-L1), CD80-IgV Fc (effector), 10 nM / IL-2 release, K562/OKT3 (No PD-L1), CD80-IgV Fc (effector), 100 nM: Pan T cells + K562/OKT3 (no PD-L1), effector Fc format (controls as labelled); for IL-2 release, K562/OKT3/PD-L1, CD80-IgV Fc (inert), 1 nM / IL-2 release, K562/OKT3/PD-L1, CD80-IgV Fc (inert), 10 nM / IL-2 release, K562/OKT3/PD-L1, CD80-IgV Fc (inert), 100 nM: Pan T cells + K562/OKT3/PD-L1, inert Fc format (controls as labelled)
Description: IFN-gamma, IL-2 and proliferation were determined after 72 hr. incubation.

[8] = Table E23, MFI at 33.3 nM relative to CD80 WT IgV-Fc
[9] = Table E24, Jurkat/IL2 + CHO/OKT3/PD-L1
[10] = Table E23, CD80 IgV-Fc (inert) at 33.3 nM
[11] = Table E14, 33.3 nM, listed as CD80 WT IgV-Fc = 1.0

Compound: O=C1[O][Pt]2([NH][C@@H]3CCCC[C@H]3[NH]2)[O]C1=O [oxaliplatin, reference compound]
- antitumor activity [1]: only modestly effective as monotherapy
- tumor free mice by the end of the study [1]: no tumor-free mice

Compound: Inert Fc Control
- IL-2 release, K562/OKT3 (No PD-L1), CD80-IgV Fc (effector), 1 nM [7]: 7040
- IL-2 release, K562/OKT3 (No PD-L1), CD80-IgV Fc (effector), 10 nM [7]: 6335
- IL-2 release, K562/OKT3 (No PD-L1), CD80-IgV Fc (effector), 100 nM [7]: 5512
- IL-2 release, K562/OKT3/PD-L1, CD80-IgV Fc (inert), 1 nM [7]: <LOD
- IL-2 release, K562/OKT3/PD-L1, CD80-IgV Fc (inert), 10 nM [7]: 143
- IL-2 release, K562/OKT3/PD-L1, CD80-IgV Fc (inert), 100 nM [7]: <LOD

Compound: WT CD80 ECD-Fc (effector)
- IL-2 release, K562/OKT3 (No PD-L1), CD80-IgV Fc (effector), 1 nM [7]: 11434
- IL-2 release, K562/OKT3 (No PD-L1), CD80-IgV Fc (effector), 10 nM [7]: 20185
- IL-2 release, K562/OKT3 (No PD-L1), CD80-IgV Fc (effector), 100 nM [7]: 23118
- IL-2 release, K562/OKT3/PD-L1, CD80-IgV Fc (inert), 1 nM [7]: 507
- IL-2 release, K562/OKT3/PD-L1, CD80-IgV Fc (inert), 10 nM [7]: 3114
- IL-2 release, K562/OKT3/PD-L1, CD80-IgV Fc (inert), 100 nM [7]: 8393

Compound: WT CD80 IgV-Fc (effector)
- IL-2 release, K562/OKT3 (No PD-L1), CD80-IgV Fc (effector), 1 nM [7]: 7167
- IL-2 release, K562/OKT3 (No PD-L1), CD80-IgV Fc (effector), 10 nM [7]: 7123
- IL-2 release, K562/OKT3 (No PD-L1), CD80-IgV Fc (effector), 100 nM [7]: 6203

Further lines, results first:

- Relative Luminescence at 98 pM [2]: 949 RLU
- Relative Luminescence at 391 pM [2]: 939 RLU
- Relative Luminescence at 1563 pM [2]: 1022 RLU
- Relative Luminescence at 6250 pM [2]: 1213 RLU
- Relative Luminescence at 25000 pM [2]: 1558 RLU
- Relative Luminescence at 100000 pM [2]: 2046 RLU
- CHO/CTLA4 MFI at 66.7 nM ([3]; 66.7 nM): 24566
- pEC50 ([3]; flow binding): 7.98
- CHO/PD-L1 MFI at 66.7 nM [4]: 287
Compound: CD80 (E35D/D46E/M47V/V68M/D90G/K93E) ECD-Fc: variant full CD80 ECD fused to effector human IgG1 Fc (SEQ ID NO:1527)

- Jurkat/CD28 MFI at 66.7 nM ([5]; 66.7 nM): 282
- pEC50 ([5]; flow binding, read-out: Jurkat/CD28 EC50): < 6.70
- Relative Luminescence at 98 pM [2]: 1042 RLU
- Relative Luminescence at 391 pM [2]: 993 RLU
- Relative Luminescence at 1563 pM [2]: 1049 RLU
- Relative Luminescence at 6250 pM [2]: 1203 RLU
- Relative Luminescence at 25000 pM [2]: 1730 RLU
- Relative Luminescence at 100000 pM [2]: 2197 RLU
- CHO/PD-L1 MFI at 66.7 nM [4]: 103
Compound: CD80 (S21P/L70Q/D90G/I118V/T120S/T130A) ECD-Fc: variant full CD80 ECD fused to effector human IgG1 Fc (SEQ ID NO:1527)

- CD28 MFI at 33.3 nM ([5]; Table E23, CD80 IgV-Fc (inert) at 33.3 nM, Jurkat (CD28)): 6792
- CD28 Fold change to WT CD80 [5, 8]: 66.6
- Fold Increase over WT CD80-IgV-Fe [6, 9]: 4.8
- Relative Luciferase Units (RLU), CD80 Conc 5.0 nM [6, 9]: 825 RLU
- CTLA4 MFI at 33.3 nM [3, 10]: 17165
- CTLA4 Fold change to WT CD80 [3, 8]: 12.4
- PD-L1 MFI at 33.3 nM [4, 10]: 52151
- PD-L1 Fold change to WT CD80 [4, 8]: 316.1
- Ratio of PDL1:CD28 ([4]; Table E23, ratio of MFI at 33.3 nM): 7.7
Compound: H18Y/E35D/M47V/V68M/A71G/D90G

- CD28 Fold change to WT [5, 11]: 0.4
- CD28 MFI at 33.3 nM ([5]; Table E14, Jurkats (CD28), 33.3 nM): 15
- Fold Increase over WT CD80-IgV-Fe ([6]; Table E15, CHO/OKT3/PD-L1): 0.3
- Relative Luciferase Units (RLU), CD80-Fe Cone 5.0 nM ([6]; Table E15, CHO/OKT3/PD-L1): 137 RLU
- CTLA4 Fold change to WT CD80 [3, 11]: 0.1
- CTLA4 MFI at 33.3 nM ([3]; Table E14, 33.3 nM): 125
- PD-L1 Fold change to WT [4, 11]: 0.5
- PD-L1 MFI at 33.3 nM ([4]; Table E14, 33.3 nM): 45
- Ratio of PDL1:CD28 ([4]; Table E14, MFI at 33.3 nM): 3
Compound: deltaE10-A98: variant CD80 IgV-Fc, IgV SEQ ID NO:545 (VIHVTKEVKEVTLSVKAD; not fully specified)
